Results published in patent publication US20230212319A1, “NOVEL ANTIGEN BINDING DOMAINS AND SYNTHETIC ANTIGEN RECEPTORS INCORPORATING THE SAME” (University of Southern California, priority 2020, published 2023).

Test system: RAJI cells
Experiment: JNG assay, co-culture with RAJI cells
Assay type: cell-based
Conditions: for NFAT-GFP ASSAY: Raji: JNG cells expressing construct, co-culture with Raji
Description: Cellular supernatant is collected and assayed for the induction of cytokines (e.g., IL2).
JNG (Jurkat cells expressing EGFP under an NFAT promoter) were infected with lentiviral vectors encoding different single chain and multi-chain SARs by spinfection in the presence of 8 µg/ml of Polybrene® (Sigma, Catalog no. H9268). The Jurkat-NFAT-GFP cells are engineered in such a way that the IL-2 promoter, which carries NFAT binding sites, is cloned upstream of the GFP gene. These cells have been used to study signaling via TCR and CAR. The different SARs were stably expressed in Jurkat NFAT-GFP cells by lentiviral mediated gene transfer, followed by selection with puromycin or blasticidin. No drug selection was used in case the construct lacked an antibiotic resistance gene. The SAR-expressing Jurkat-NFAT-GFP cells were cocultured with the target cells at E:T ratio of approximately 1:2 for approximately 4 hours to 18 hours. When the interaction between SIRs and their target antigen results in activation of the NFAT pathway, GFP expression is induced. […] GFP expression was monitored by FACS analysis. The Jurkat-NFAT-GFP (parental) cells were used as control. The structure of different constructs can be determined based on their names. […] The sequence of the other constructs in the table can be similarly determined from their names and by referring to the different Tables of this disclosure that provide the names and SEQ ID NO of the different modules. Alternatively, the composition and modular architecture of the different SAR constructs can be determined from their sequences by bioinformatics tools, including using nucleic acid and amino acids homology searches. A SAR is considered positive in the assay in case the SAR expressing Jurkat-NFAT-GFP cells show greater % GFP positive cells when cultured with the target cell line as compared to parental Jurkat-NFAT-GFP cells. […] In general, the number +/-, +, 2+, 3+, 4+, 5+ refer to approximately 5%, 10%, 20%, 30%, 40% and 50% GFP positive cells. The % of GFP induction in the above assay is dependent not only the relative strength of the SAR but also, among other factors, on the relative level of expression of the SAR in the JNG cells and the relative level of expression of the target antigen in the target cell line. To control for the difference in gene transduction efficiency of the different SAR constructs, the experiment was conducted with JNG cells transduced with SAR constructs co-expressing a drug resistance gene (e.g., puromycin or PAC) followed by drug selection to generate a stable population of SAR-expressing cells. It is to be noted that the drug resistance gene (e.g., PAC) in the SAR constructs is optional and in vivo studies were conducted with SAR constructs lacking the PAC gene.

Molecule | GFP induction / activity (co-culture with RAJI cells) | NFAT-GFP ASSAY: Raji
SEQ ID NO: 22254: bispecific SAR on CD19 targeted SIR backbone comprising the receptor binding domain of the ligand APRIL (protein) MALPVTALLLPLALLLHAARPACVLHLVPINATSKDDSDVTEVMWQPALRRGRGLQAQGYGVRIQDAGVYLLYSQVLFQDVTFTMGQVVSREGQGRQETLFRCIRSMPSHPDRAYNSCYSAGVFHLHQGDILSVIIPRARAKLNLSPHGTFLGFVKLGTGGGGSGGGGSGGGGSEFDIQMTQSPSSLSASVGDRVTITCKASDHINNWLAWYQQKPGQAPKLLIYGATTLETGVPSRFSGSGSGTDYTLTISSLQPEDFATYYCQQSWNTPWTFGQGTKLEIKRLEDLKNVFPPEVAVFEPSEAEISHTQKATLVCLATGFYPDHVELSWWVNGKEVHSGVCTDPQPLKEQPALNDSRYCLSSRLRVSATFWQNPRNHFRCQVQFYGLSENDEWTQDRAKPVTQIVSAEAWGRADCGFTSESYQQGVLSATILYEILLGKATLYAVLVSALVLMAMVKRKDSRGRAKRSGSGATNFSLLKQAGDVEENPGPTSATMDWIWRILFLVGAATGAHSGPEVQLVESGGGLVQAGGSLRLSCAASGRTFSMGWFRQAPGKEREFVAAITYSGGSPYYADSVKGRFTISRDNAKNTVYLQMNSLKPEDTAVYYCAANPTYGSDWNAENWGQGTQVTVSSGSGGGGSGGGGSGGGGSFEQVQLQQPGAELVKPGASVKMSCKASGYAFSSYWINWMKQKPGQGLEWIGQIYPGDGDTNYNGKFKGRATLTADTSSSTAYMQLSSLTSEDSAVYFCARSITTVVGCAMDYWGQGTSVTVSSTRIQNPDPAVYQLRDSKSSDKSVCLFTDFDSQTNVSQSKDSDVYITDKCVLDMRSMDFKSNSAVAWSNKSDFACANAFNNSIIPEDTFFPSPESSCDVKLVEKSFETDTNLNFQNLSVIGFRILLLKVAGFNLLMTLRLWSSRAKRSGSGVKQTLNFDLLKLAGDVESNPGPSRGHMTEYKPTVRLATRDDVPRAVRTLAAAFADYPATRHTVDPDRHIERVTELQELFLTRVGLDIGKVWVADDGAAVAVWTTPESVEAGAVFAEIGPRMAELSGSRLAAQQQMEGLLAPHRPKEPAWFLATVGVSPDHQGKGLGSAVVLPGVEAAERAGVPAFLETSAPRNLPFYERLGFTVTADVEVPEGPRTWCMTRKPGA | retained the ability to respond | –
22085 (protein) MALPVTALLLPLALLLHAARPQLQLQESGPGLVKPSETLSLTCTVSGDSISSGDYYWGWIRQPPGKGLEWIGHIYYSGVTYYNPSLKSRVTISVDTSRNQFSLKLSSVTAADTAVYYCTREDSSNWRSRGQGTLVTVSSLEGSGGGGSGGGGSGEDLKNVFPPEVAVFEPSEAEISHTQKATLVCLATGFYPDHVELSWWVNGKEVHSGVCTDPQPLKEQPALNDSRYCLSSRLRVSATFWQNPRNHFRCQVQFYGLSENDEWTQDRAKPVTQIVSAEAWGRADCGFTSESYQQGVLSATILYEILLGKATLYAVLVSALVLMAMVKRKDSRGRAKRSGSGATNFSLLKQAGDVEENPGPTSMDWIWRILFLVGAATGAHSFEVQLLESGGGLIQPGGSLRLSCAASGFTFSSHAMTWVRQAPGKGLEWVSAISGSGDYTHYADSVKGRFTISRDNSKNTVYLQMNSLRAEDSAVYYCAKDEDGGSLLGHRGQGTLVTVSSTRGSIPEDTFFPSPESSCDVKLVEKSFETDTNLNFQNLSVIGFRILLLKVAGFNLLMTLRLWSS | – | +/- (refer to approximately 5%, 10%, 20%, 30%, 40% and 50% GFP positive cells)
22084 (protein) MALPVTALLLPLALLLHAARPQLQLQESGPGLVKPSETLSLTCTVSGDSISSGDYYWGWIRQPPGKGLEWIGHIYYSGVTYYNPSLKSRVTISVDTSRNQFSLKLSSVTAADTAVYYCTREDSSNWRSRGQGTLVTVSSLDSGGGGSFEQLQLQESGPGLVKPSETLSLTCTVSGGSISSGDYYWGWIRQPPGKGLEWIGHIYYSGATYYNPSLKSRVTISVDTSRNQFSLKLSSVTAADTAVYYCTRDDSSNWRSRGQGTLVTVSSTRDKTHTCPPCPAIPEDTFFPSPESSCDVKLVEKSFETDTNLNFQNLSVIGFRILLLKVAGFNLLMTLRLWSS | – | +/- (refer to approximately 5%, 10%, 20%, 30%, 40% and 50% GFP positive cells)
